Assay results: patent CN114573710A

How the values were obtained:
[1] = molecular target: CD47 on lymphoma cell lines Raji, Daudi and Romas (UniProt Q08722); assay: flow cytometry, Raji cells incubated with CD19-s47-CART supernatant, detected with anti-HA-APC
[2] = molecular target: CD47 on lymphoma cell lines Raji, Daudi and Romas (UniProt Q08722); assay: flow cytometry, Daudi cells incubated with CD19-s47-CART supernatant, detected with anti-HA-APC
[3] = molecular target: CD47 on lymphoma cell lines Raji, Daudi and Romas (UniProt Q08722); assay: flow cytometry, Romas cells incubated with CD19-s47-CART supernatant, detected with anti-HA-APC

Measured: 结合率

Chain of UniProt Q08722 (Q08722 19-323 limits assumed): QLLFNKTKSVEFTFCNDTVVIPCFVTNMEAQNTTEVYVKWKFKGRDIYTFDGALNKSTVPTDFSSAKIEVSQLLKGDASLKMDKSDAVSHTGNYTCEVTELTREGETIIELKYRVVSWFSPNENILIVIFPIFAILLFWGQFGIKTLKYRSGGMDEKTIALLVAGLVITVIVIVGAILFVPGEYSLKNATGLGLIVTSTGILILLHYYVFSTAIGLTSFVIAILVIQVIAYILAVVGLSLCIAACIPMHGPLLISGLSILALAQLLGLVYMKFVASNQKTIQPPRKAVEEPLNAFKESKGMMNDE

B1: 外泌蛋白s47 (抗CD47单链抗体, CD47 ScFv, 末尾连接HA标签) (scFv)
scFv: DVVMTQSPLSLPVTPGEPASISCRSSQSIVYSNGNTYLGWYLQKPGQSPKLLIYKVSNRFSGVPDRFSGSGSGTDFTLKISRVEAEDVGVYHCFQGSHVPYTFGGGTKVEIKGGGGSGGGGSGGGGSQVQLVQSGAEVKKPGASVKVSCKASGYTFTNYNMHWVRQAPGQGLEWIGTIYPGNDDTSYNQKFKDKATLTADKSTSTAYMELSSLRSEDTAVYYCARGGYRAMDYWGQGTLVTVSSYPYDVPDYA
100 %: all assays above
